Paper PMC8836279, “The T850D Phosphomimetic Mutation in the Androgen Receptor Ligand Binding Domain Enhances Recruitment at Activation Function 2” (International Journal of Molecular Sciences, 2022)
Changes are numbered by the printed parent chain. Square brackets hold non-standard residues; d marks the D form. pT = C[C@@H](OP(=O)(O)O)[C@H](N)C(=O)O

Experiments:
[1] = Circular dichroism spectroscopy and thermal denaturation of H10 peptides; format: physicochemical; settings: for melting temperature higher than the WT peptide: 25 µM peptide in 20% TFE-TRIS buffer pH 7.5, at all wave lengths (208, 211, 215, 222 nm); for reduction (vs. WT peptide) of the CD minimum at 208 nm / reduction (vs. WT peptide) of the CD minimum at 222 nm: 50 µM peptide in 20% TFE-TRIS buffer pH 7.5, 4 °C
Description: Peptides (AR WT 845–868: Acetyl-[…]-amide) with T850D or with phosphorylated T850 (Genscript, Piscataway, NJ, USA) were compared to WT peptide through their CD spectra. […] The Mean Residue-Molar Ellipticity (MR-ME) was calculated as MR-ME = MRW × θ/(10 × d × c) with MRW (Mean Residue Weight) = peptide weight/(n − 1) and n = […]; with θ as the observed ellipticity in millidegrees; […]. The unfolded fraction (Funfolded) of the peptide was calculated from the Ellipticity data using equation: Funfolded = (θt − θfolded)/(θunfolded − θfolded) with θt as the Ellipticity at each temperature, θfolded as the Elllipticity of the peptide in folded state and θunfolded as the Ellipticity of the peptide in unfolded state. Melting temperature (Tm) of AR 845–868 peptides were calculated through nonlinear regression analysis of the Sigmoidal dose response curves (variable slope) using GraphPad Prism 9, version 9.3.1. The temperature corresponding to an unfolded fraction of 0.5 is the Tm. Mean melting temperatures with 95% CI of 2 independent experiments are given. Helix content was calculated from the molar ellipticity [θ] at 222 nm using the following equation, % helix = 100 ([θ]222/(−39,500(1 − 2.57/n))), where n is the number of total peptide bonds and [θ]222 has been corrected for background.

AR WT = molecular target: T1, AR WT (Homo sapiens, UniProt P10275); test: Whole-cell competition ligand binding assay in COS-7 cells; settings: mean ± SE
T1 construct: Cells expressing a flag-tagged AR full-length were used as control; expressed in transfected cells
T1 sequence (P10275 1-920): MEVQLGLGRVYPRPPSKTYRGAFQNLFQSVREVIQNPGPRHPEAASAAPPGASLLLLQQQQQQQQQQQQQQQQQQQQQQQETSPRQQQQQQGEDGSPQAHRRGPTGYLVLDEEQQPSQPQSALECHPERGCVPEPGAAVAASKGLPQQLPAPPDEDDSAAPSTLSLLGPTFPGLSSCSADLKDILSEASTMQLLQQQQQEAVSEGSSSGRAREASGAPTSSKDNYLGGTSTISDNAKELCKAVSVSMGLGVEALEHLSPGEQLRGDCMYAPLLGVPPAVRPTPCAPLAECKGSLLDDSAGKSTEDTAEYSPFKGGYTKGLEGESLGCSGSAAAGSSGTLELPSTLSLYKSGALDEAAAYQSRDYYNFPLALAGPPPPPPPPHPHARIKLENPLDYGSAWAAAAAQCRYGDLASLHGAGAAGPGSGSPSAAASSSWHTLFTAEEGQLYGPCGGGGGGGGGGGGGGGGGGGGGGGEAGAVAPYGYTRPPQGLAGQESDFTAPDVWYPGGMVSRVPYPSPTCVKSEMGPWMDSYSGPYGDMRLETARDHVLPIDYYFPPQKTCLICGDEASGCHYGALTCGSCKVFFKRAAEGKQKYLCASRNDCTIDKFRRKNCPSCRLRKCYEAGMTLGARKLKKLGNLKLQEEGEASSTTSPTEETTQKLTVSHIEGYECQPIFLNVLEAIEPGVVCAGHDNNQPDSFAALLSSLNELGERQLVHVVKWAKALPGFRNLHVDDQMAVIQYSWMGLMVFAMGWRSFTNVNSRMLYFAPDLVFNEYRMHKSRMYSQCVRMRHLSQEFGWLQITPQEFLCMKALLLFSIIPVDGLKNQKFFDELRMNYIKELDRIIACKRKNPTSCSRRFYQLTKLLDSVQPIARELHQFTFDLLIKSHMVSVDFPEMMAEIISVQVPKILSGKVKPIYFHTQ
Description: (§1) After addition of Ultima Gold XR (Perkin Elmer, Waltham, MA, USA), cell lysates were counted for ^3H-signal. Data were normalized for the average cpm of all data points per independent experiment. Mean and SEM of the specific binding (total binding—non-specific binding) is given (n ≥ 3). Via non-linear regression analysis using the One-site binding-equation of GraphPad Prism 9 (version 9.3.1), the KD and Bmax were calculated. Ratio-paired T-test with * = p ≤ 0.05, ** = p < 0.01.

AR T850A = molecular target: T2, AR T850A (Homo sapiens, UniProt P10275, T851A); test: as above; settings: mean ± SE
T2 construct: Cells expressing a flag-tagged AR full-length were used as control; expressed in transfected cells
T2 sequence (P10275 1-920 T851A): T1 sequence (P10275 1-920) with T851A
Description: as §1

AR T850D = molecular target: T3, AR T850D (Homo sapiens, UniProt P10275, T851D); test: as above
T3 construct: Cells expressing a flag-tagged AR full-length were used as control; expressed in transfected cells
T3 sequence (P10275 1-920 T851D): T1 sequence (P10275 1-920) with T851D
Description: as §1

LBD WT = settings: split TEV assay, Hep3B

Compound | melting temperature higher than the WT peptide [1] | reduction (vs. WT peptide) of the CD minimum at 208 nm [1] | reduction (vs. WT peptide) of the CD minimum at 222 nm [1] | other results
T850D peptide: H10 peptide AR 845–868 (WT: Acetyl-KRKNPTSCSRRFYQLTKLLDSVQP-amide) with T850D (Ac-KRKNPDSCSRRFYQLTKLLDSVQP-NH2) | approximately 13 °C | 30% | 43% | 
C[C@@H]1CC2=CC(=O)CC[C@@H]2[C@H]2CC[C@@]3(C)[C@@H](CC[C@]3(C)O)[C@@H]21 [^3H-Mib] |  |  |  | Bmax (AR WT): 5182 (±602) cpm; Bmax (AR T850A): 5514 (±561) cpm; increase of maximal binding, AR T850D vs. AR WT (AR T850D): approximately 50%; Bmax (AR T850D; mean ± SE): 7902 (±773) ** cpm
C[C@]12CCC(=O)C[C@@H]1CC[C@@H]1[C@@H]2CC[C@]2(C)[C@@H](O)CC[C@@H]12 [DHT, dihydrotestosterone] |  |  |  | EC50 of WT LBD compared to EC50 of T850D LBD (LBD WT): 10 fold
T850Ph peptide: H10 peptide AR 845–868 (WT: Acetyl-KRKNPTSCSRRFYQLTKLLDSVQP-amide) with phosphorylated T850 (Ac-KRKNP[pT]SCSRRFYQLTKLLDSVQP-NH2; SMILES CC(=O)N[C@@H](CCCCN)C(=O)N[C@@H](CCCNC(=N)N)C(=O)N[C@@H](CCCCN)C(=O)N[C@@H](CC(N)=O)C(=O)N1CCC[C@H]1C(=O)N[C@H](C(=O)N[C@@H](CO)C(=O)N[C@@H](CS)C(=O)N[C@@H](CO)C(=O)N[C@@H](CCCNC(=N)N)C(=O)N[C@@H](CCCNC(=N)N)C(=O)N[C@@H](Cc1ccccc1)C(=O)N[C@@H](Cc1ccc(O)cc1)C(=O)N[C@@H](CCC(N)=O)C(=O)N[C@@H](CC(C)C)C(=O)N[C@H](C(=O)N[C@@H](CCCCN)C(=O)N[C@@H](CC(C)C)C(=O)N[C@@H](CC(C)C)C(=O)N[C@@H](CC(=O)O)C(=O)N[C@@H](CO)C(=O)N[C@H](C(=O)N[C@@H](CCC(N)=O)C(=O)N1CCC[C@H]1C(N)=O)C(C)C)[C@@H](C)O)[C@@H](C)OP(=O)(O)O) | ~27 °C | 38% | 51% | 
